Several values for one entry are separate records, joined by “and”; a condition that tells them apart may be missing. Equal values may be shown once.
B1: NF2 (merlin) isoform 7, human, full length (507 aa, lacks exons 2-3 = isoform-1 residues 39-121; exon-16 C-terminus), P35240-4 (parent)
chain: MAGAIASRMSFSSLKRKQPKTFTVRIVTMDAEMEFNCEVKKQILDEKIYCPPEASVLLASYAVQAKYGDYDPSVHKRGFLAQEELLPKRVINLYQMTPEMWEERITAWYAEHRGRARDEAEMEYLKIAQDLEMYGVNYFAIRNKKGTELLLGVDALGLHIYDPENRLTPKISFPWNEIRNISYSDKEFTIKPLDKKIDVFKFNSSKLRVNKLILQLCIGNHDLFMRRRKADSLEVQQMKAQAREEKARKQMERQRLAREKQMREEAERTRDELERRLLQMKEEATMANEALMRSEETADLLAEKAQITEEEAKLLAQKAAEAEQEMQRIKATAIRTEEEKRLMEQKVLEAEVLALKMAEESERRAKEADQLKQDLQEAREAERRAKQKLLEIATKPTYPPMNPIPAPLPPDIPSFNLIGDSLSFDFKDTDMKRLSMEIEKEKVEYMEKSKHLQEQLNELKTEIEALKLKERETALDILHNENSDRGGSSKHNTIKKPQAQGRRPICI

Variants of: B1
Experiment: reverse yeast two-hybrid deep mutational scan (rY2H-seq): NF2 isoform 7 mutant library as bait mated with wild-type prey strains; selection on medium lacking adenine for non-interacting pairs; NextSeq paired-end sequencing; enrichment vs …
Conditions: with PIK3R3 (phosphatidylinositol 3-kinase regulatory subunit gamma), Q92569; yeast diploids after mating (RBait_S3 x RPrey_S3), 30 °C, selection for reporter genes on NB agar; human tyrosine kinase ABL2 co-expressed as the active kinase …; HIGHER = WEAKER BINDING (the opposite of display enrichments): higher = stronger loss of interaction: reverse Y2H selects yeast in which bait and prey do NOT interact (growth without adenine), so a …; hits-only table; scale: rY2H score; numbering: uniprot, sequence starts at 1

| Variant | enrichment |
| --- | --- |
| L14P | 3.46 |
| T493A | 2.62 |
| M225I | 2.15 |
| S294V | 1.71 |
| S294F | 2.27 |
| L212P | 2.57 |
| E234K | 1.73 |
| E339G | 2.91 |
| T297L | 1.67 |
| D71T | 11.1 |
| R166C | 1.57 |
| R166K | 2.44 |
| E458L | 13.6 |
| L207G | 1.42 |
| S73A | 4.51 |
| A365G | 2.6 |
| A62K | 2.93 |
| R485K | 6.26 |
| V63K | 2 |

| Variant | enrichment |
| --- | --- |
| L353P | 1.53 |
| T336E | 3.42 |
| K388E | 3.32 |
| M133I | 2.1 |
| K191S | 2.28 |
| K346N | 2.36 |
| L216P | 3.07 |
| T394S | 1.98 |
| I171L | 1.51 |
| D194N | 1.96 |
| V24A | 2.39 |
| A287E | 2.8 |
| N176M | 1.43 |
| V352K | 2.67 |
| D484E | 2.39 |
| R89G | 1.41 |
| G68V | 7.34 |
| A368L | 2.18 |

Second part, the variant after the results:

| enrichment | Variant |
| --- | --- |
| 1.52 | G146R |
| 1.76 | P52A |
| 5.43 | T147A |
| 2.16 | A155T |
| 4.88 | P396K |
| 2.64 | M280I |
| 2.86 | M357E |
| 2.29 | G486S |
| 2.48 | L149P |
| 1.42 | I141C |
| 2.13 | A140V |
| 35.5 | S55K |
| 1.97 | Q498E |
| 13 | F173P |
| 11 | F173T |
| 2.91 | M401Q |

Same assay, conditions: with NF2 C-terminal domain (wild type; homomeric NF2-NF2 interaction), P35240; yeast diploids after mating (RBait_S3 x RPrey_S3), 30 °C, selection for reporter genes on NB agar; human ABL2 co-expressed as the kinase-dead K35M mutant …; HIGHER = WEAKER BINDING (the opposite of display enrichments): higher = stronger loss of interaction: reverse Y2H selects yeast in which bait and prey do NOT interact (growth without adenine), so a …; hits-only table; partner unresolved; scale: rY2H score; numbering: uniprot, sequence starts at 1

| Variant | enrichment |
| --- | --- |
| H491L | 2.51 |
| E310L | 1.51 |
| R113G | 1.5 |
| L408C | 1.37 |
| E380K | 3.26 |
| T297L | 3.13 |
| L315R | 1.62 |
| A358E | 2.37 |
| D69L | 1.7 |
| D118K | 4.21 |
| P413K | 1.53 |
| N288A | 1.84 |
| A287E | 3.57 and 6.74 |
| D476G | 1.92 |
| L158G | 1.55 |
| L390A | 2.28 |
| S483K | 2.55 |

Other lines, results leading:

| enrichment | Variant |
| --- | --- |
| 4.06 | L475K |
| 1.58 | E245A |
| 2.15 | K395S |
| 27.7 | F424E |
| 3.15 | D411L |
| 3.06 | L353K |
| 5.78 | Q376A |
| 1.63 | E377L |
